These results are taken from PMC9177810, “Allosteric interactions prime androgen receptor dimerization and activation”.

The target of data set [1] is Recombinant mouse AR lacking the N-terminus (mouse). Put plainly: cryo-EM structure; Grafix cross-linked complex of ΔNTD AR, DHT, ARE35 DNA and ERG (fraction 11); three states (Entrenched, Splayed, Divorced) at 11.4, 9.1 and 9.4 Å; LBD and DBD X-ray coordinates docked.
Another data set deals with AR-AR18Linker (mouse) (UniProt P19091). Put plainly: fluorescence polarization. To be noted: 150 mM NaCl, 40 mM Tris pH 8.0, 1 mM TCEP, 20 uM DHT, 10% glycerol, 0.01% NP40, on ice; FP 100 nM DNA, 0-4 uM protein; EMSA 50 nM DNA, 250 nM protein. Background: Polarisation of emitted light reports the rotation of a fluorescent probe.
Chain of AR-AR18Linker (mouse) (P19091 whole entry): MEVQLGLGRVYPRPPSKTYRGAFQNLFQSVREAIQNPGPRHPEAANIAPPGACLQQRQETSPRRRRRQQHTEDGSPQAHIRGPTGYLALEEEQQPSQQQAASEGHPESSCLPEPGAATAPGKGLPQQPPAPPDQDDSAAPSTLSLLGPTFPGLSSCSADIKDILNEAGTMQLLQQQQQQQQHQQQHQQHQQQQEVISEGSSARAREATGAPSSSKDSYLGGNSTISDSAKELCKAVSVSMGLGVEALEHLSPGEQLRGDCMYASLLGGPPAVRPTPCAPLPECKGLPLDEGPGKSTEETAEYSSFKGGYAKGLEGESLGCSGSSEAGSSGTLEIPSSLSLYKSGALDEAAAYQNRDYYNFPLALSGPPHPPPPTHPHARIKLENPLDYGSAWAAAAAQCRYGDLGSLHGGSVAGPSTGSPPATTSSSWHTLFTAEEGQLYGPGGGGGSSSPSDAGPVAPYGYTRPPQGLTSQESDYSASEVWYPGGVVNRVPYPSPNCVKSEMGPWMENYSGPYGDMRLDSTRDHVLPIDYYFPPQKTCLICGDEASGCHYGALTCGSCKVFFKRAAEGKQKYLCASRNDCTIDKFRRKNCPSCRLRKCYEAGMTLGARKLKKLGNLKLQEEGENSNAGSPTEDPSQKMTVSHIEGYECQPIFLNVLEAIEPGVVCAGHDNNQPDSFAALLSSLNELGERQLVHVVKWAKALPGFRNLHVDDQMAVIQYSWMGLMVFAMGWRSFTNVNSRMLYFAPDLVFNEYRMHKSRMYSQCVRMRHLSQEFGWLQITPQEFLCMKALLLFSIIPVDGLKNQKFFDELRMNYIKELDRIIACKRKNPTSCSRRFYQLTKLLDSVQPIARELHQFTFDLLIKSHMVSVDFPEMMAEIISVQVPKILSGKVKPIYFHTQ
For the next data set, the target named is AR-AR27Linker (mouse) (UniProt P19091). Nature of the data set: fluorescence polarization. As to conditions: 150 mM NaCl, 40 mM Tris pH 8.0, 1 mM TCEP, 20 uM DHT, 10% glycerol, 0.01% NP40, on ice; FP 100 nM DNA, 0-4 uM protein; EMSA 50 nM DNA, 250 nM protein.
Chain of AR-AR27Linker (mouse) (P19091 whole entry, the tested form may be a part): as the sequence (P19091 whole entry) above
The target of data set [2] is AR deltaNTD WT;ERG full-length (mouse;human, UniProt P19091;P11308-1 530-899;1-462, |). Nature of the data set: cryo-EM (9.1-11.4 A); DHT; GraFix cross-linked; AR dimer; EMD-25132, EMD-25133, EMD-25134; 150 mM NaCl, 40 mM Tris pH 8.0, 1 mM TCEP, 20 uM DHT, 10% glycerol, 0.01% NP40, on ice; FP 100 nM DNA, 0-4 uM protein; EMSA 50 nM DNA, 250 nM protein. As to conditions: protein: recombinant;recombinant, tags: Smt3 fusion, removed by Ulp1;Smt3 fusion, chain copies: 2;1, label: unlabeled, blunt.
Chain of AR deltaNTD WT;ERG full-length (P19091 530-899, stated change not applied, chain 1 of 2): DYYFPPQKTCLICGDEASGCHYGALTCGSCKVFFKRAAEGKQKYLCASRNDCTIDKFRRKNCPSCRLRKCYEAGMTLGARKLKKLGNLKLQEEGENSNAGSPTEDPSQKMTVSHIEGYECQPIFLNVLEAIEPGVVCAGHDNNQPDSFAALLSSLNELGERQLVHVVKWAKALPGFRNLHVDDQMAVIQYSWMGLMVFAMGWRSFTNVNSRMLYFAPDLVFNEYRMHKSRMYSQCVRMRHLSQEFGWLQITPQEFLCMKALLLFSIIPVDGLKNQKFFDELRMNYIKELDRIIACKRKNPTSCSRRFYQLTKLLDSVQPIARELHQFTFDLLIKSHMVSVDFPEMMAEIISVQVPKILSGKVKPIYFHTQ
Chain of AR deltaNTD WT;ERG full-length (P11308 other isoform, or with tags, fused parts or gaps | | mutant, chain 2 of 2): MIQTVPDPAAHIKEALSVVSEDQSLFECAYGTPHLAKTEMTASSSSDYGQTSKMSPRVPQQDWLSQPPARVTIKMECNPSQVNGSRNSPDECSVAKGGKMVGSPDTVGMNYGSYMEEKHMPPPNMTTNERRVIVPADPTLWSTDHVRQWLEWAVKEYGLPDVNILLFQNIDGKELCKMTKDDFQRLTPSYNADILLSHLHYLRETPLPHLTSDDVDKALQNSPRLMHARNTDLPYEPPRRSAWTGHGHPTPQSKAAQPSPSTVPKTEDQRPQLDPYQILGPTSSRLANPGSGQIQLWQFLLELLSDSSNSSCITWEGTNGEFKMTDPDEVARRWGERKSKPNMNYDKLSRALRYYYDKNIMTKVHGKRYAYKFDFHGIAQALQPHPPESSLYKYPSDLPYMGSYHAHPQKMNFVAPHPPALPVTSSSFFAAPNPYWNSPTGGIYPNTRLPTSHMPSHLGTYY

In the next data set the target is AR deltaNTD WT (mouse, UniProt P19091 530-899). Nature of the data set: fluorescence polarization; DHT; 150 mM NaCl, 40 mM Tris pH 8.0, 1 mM TCEP, 20 uM DHT, 10% glycerol, 0.01% NP40, on ice; FP 100 nM DNA, 0-4 uM protein; EMSA 50 nM DNA, 250 nM protein. As to conditions: protein: recombinant; tags: Smt3 fusion, removed by Ulp1; chain copies: 2; label: 5' fluorescein (FP); unlabeled (EMSA); blunt.
Chain of AR deltaNTD WT (P19091 530-899, stated change not applied): as the sequence (P19091 530-899, stated change not applied, chain 1 of 2) above

Turning to “Recombinant mouse AR lacking the N-terminus (domain or fragment)”, in data set [1], the stoichiometry N (commonly a count of units in the complex or per binding partner) amounted to 2.

In the data set with AR-AR18Linker (mouse), “TACCTAGCGTGGCCAGAACATCATGTTCTCCGGTGCGATCCAG (double strand) [ARE/Scr (ARE43)]” showed a binding signal (fold tighter than WT AR) of 5. Moreover, the binding signal (fold weaker than WT AR) with AR-AR27Linker (mouse) came out at 3.

B1: ARE35 (dsDNA)
DNA 1: TAGCGTGGCCAGAACATCATGTTCTCCGGTGCGAT
DNA 2: ATCGCACCGGAGAACATGATGTTCTGGCCACGCTA
Turning to B1, in data set [2], the binding result is reported as “binds”.

B2: ARE/Scr (ARE43) (dsDNA)
DNA 1: TACCTAGCGTGGCCAGAACATCATGTTCTCCGGTGCGATCCAG
DNA 2: CTGGATCGCACCGGAGAACATGATGTTCTGGCCACGCTAGGTA
With B2, the binding result with AR deltaNTD WT is “binds”.
